Drawing on patent US20150125470A1, this text covers Kd and fold affinity against #32A1 for 17 molecules.

Test [1] has as its target human Siglec-15 V-set domain (human) (UniProt Q6ZMC9). In words: SPR (Biacore T200), antibody captured via anti-human IgG, antigen as analyte, same manner as 10-1. (In general: Surface plasmon resonance follows binding to a sensor surface in real time, without labels.)
Test [2] shares this target. The experiment in a line: SPR (Biacore T200), ratio of KD values, reference rat #32A1.
The target is the same in test [3]. The experiment in a line: SPR (Biacore T200), antibody captured via immobilized anti-mouse IgG antibody, antigen as analyte, 1:1 model.
Test [4] has the same target. In words: SPR (Biacore T200), antibody captured via immobilized anti-human IgG antibody, antigen as analyte, 1:1 model.

Changes are numbered by the printed parent chain.

Sequence of UniProt Q6ZMC9 (Q6ZMC9 39-165 limits assumed, form in doubt): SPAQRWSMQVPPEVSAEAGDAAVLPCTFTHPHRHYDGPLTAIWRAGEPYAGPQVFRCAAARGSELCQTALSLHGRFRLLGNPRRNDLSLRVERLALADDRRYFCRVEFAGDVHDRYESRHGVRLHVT

B1: h#24A3-H2/L3 (antibody, human IgG2, kappa, V domains shown)
VH: QVQLVQSGAEVKKPGASVKVSCKASGYTFPRYDVSWVRQAPGQGLEWMGVIHPGSGGTGYNEKFKARVTITADTSTSTAYMELSSLRSEDTAVYYCARRGLNSGYWFFDFWGQGTLVTVSS
VL: DIVMTQSPDSLAVSLGERATINCKASQNVGSNVDWYQQKPGQSPKLLIYESTNRYTGVPDRFTGSGSGTDFTFTISSLQAEDVAVYYCMQSNFFPFTFGQGTKVEIKR
As for B1, the Kd – broadly, the equilibrium constant for the complex coming apart – in test [1] was 27 pM.

B2: h#24A3-H2c/L1 (antibody, human IgG2, kappa, V domains shown)
VH: B1 VH with M48I, S103K
VL: B1 VL with S43P, T63S, F73L
On to B2, for which the Kd in test [1] is 10 pM.

B3: h#24A3-H2d/L1 (antibody, human IgG2, kappa, V domains shown)
VH: B1 VH with V68A, S103K
VL: B1 VL with S43P, T63S, F73L
B3 had a Kd in test [1] of 4.5 pM.

B4: h#24A3-H2/L2 (antibody, human IgG2, kappa, V domains shown)
VH: B1 VH
VL: B1 VL with T63S
Consider B4, for which the Kd in test [1] amounted to 28 pM.

B5: h#24A3-H2b/L1 (antibody, human IgG2, kappa, V domains shown)
VH: B1 VH with S103K
VL: B1 VL with S43P, T63S, F73L
B5 registered a Kd in test [1] of 9.8 pM.

B6: h#24A3-H2c/L3b (antibody, human IgG2, kappa, V domains shown)
VH: B1 VH with M48I, S103K
VL: B1 VL with F73L
In test [1], B6 had a Kd of 15 pM.

B7: h#24A3-H2b/L2b (antibody, human IgG2, kappa, V domains shown)
VH: B1 VH with S103K
VL: B1 VL with T63S, F73L
In test [1], B7 yielded a dissociation constant Kd of 8.5 pM.

B8: h#24A3-H2d/L3b (antibody, human IgG2, kappa, V domains shown)
VH: B1 VH with V68A, S103K
VL: B1 VL with F73L
For the molecule B8, the Kd in test [1] turned out to be 7.5 pM.

B9: h#24A3-H2e/L3b (antibody, human IgG2, kappa, V domains shown)
VH: B1 VH with A72V, S103K
VL: B1 VL with F73L
Regarding B9, the Kd in test [1] came out at 16 pM.

B10: h#24A3-H2c/L2b (antibody, human IgG2, kappa, V domains shown)
VH: B1 VH with M48I, S103K
VL: B1 VL with T63S, F73L
B10 had a dissociation constant Kd in test [1] of 13 pM.

B11: h#24A3-H2/L1 (antibody, human IgG2, kappa, V domains shown)
VH: B1 VH
VL: B1 VL with S43P, T63S, F73L
The molecule B11 displayed a Kd in test [1] of 31 pM.

B12: h#24A3-H2e/L2b (antibody, human IgG2, kappa, V domains shown)
VH: B1 VH with A72V, S103K
VL: B1 VL with T63S, F73L
For B12, the Kd in test [1] was 18 pM.

B13: h#24A3-H2d/L2b (antibody, human IgG2, kappa, V domains shown)
VH: B1 VH with V68A, S103K
VL: B1 VL with T63S, F73L
In turn, B13 gave a Kd in test [1] of 10 pM.

B14: h#24A3-H2b/L3b (antibody, human IgG2, kappa, V domains shown)
VH: B1 VH with S103K
VL: B1 VL with F73L
For B14, in test [1], the Kd was found to be 7.7 pM. This Kd and that of the molecule before are within 1.5-fold of each other.

B15: h#24A3-H2e/L1 (antibody, human IgG2, kappa, V domains shown)
VH: B1 VH with A72V, S103K
VL: B1 VL with S43P, T63S, F73L
Turning to B15, the Kd in test [1] was 6.9 pM.

B16: rat anti-human Siglec-15 monoclonal antibody #24A3 (antibody, rat IgG2a, V domains shown)
VH: QVQLQQSGAELTKPGSSVKISCKTSGYTFPRYDVSWIKQRPGQALEWIGVIHPGSGGTGYNEKFKAKATLAVDTSSSTAFMQLSSLTPEDTAVYYCARRGLNSGYWFFDFWGPGTLVTVSS
VL: DIVMTQSPTSMSISVGDRVTMNCKASQNVGSNVDWYQQKTGQSPKLLIYESTNRYTGVPDRFTGSGSGTDFTFTISNVQAEDLAVYYCMQSNFFPFTFGSGIKLEIKR
With B16, the fold affinity against #32A1 in test [2] was 2 fold. This molecule also had a Kd in test [3] of 70 pM.

B17: human chimeric antibody of the rat anti-human Siglec-15 monoclonal antibody #24A3 (antibody, human IgG2, V domains shown)
VH: B16 VH
VL: B16 VL
On to B17, for which the Kd in test [4] came to 17 pM.
